{
  "source": "IntAct's records for PubMed 18786395",
  "parents": {"B1": {"name": "FH1/FH2 domain-containing protein 1 (Homo sapiens), Q9Y613 (parent)", "chain": "MAGGEDRGDGEPVSVVTVRVQYLEDTDPFACANFPEPRRAPTCSLDGALPLGAQIPAVHRLLGAPLKLEDCALQVSPSGYYLDTELSLEEQREMLEGFYEEISKGRKPTLILRTQLSVRVNAILEKLYSSSGPELRRSLFSLKQIFQEDKDLVPEFVHSEGLSCLIRVGAAADHNYQSYILRALGQLMLFVDGMLGVVAHSDTIQWLYTLCASLSRLVVKTALKLLLVFVEYSENNAPLFIRAVNSVASTTGAPPWANLVSILEEKNGADPELLVYTVTLINKTLAALPDQDSFYDVTDALEQQGMEALVQRHLGTAGTDVDLRTQLVLYENALKLEDGDIEEAPGAGGRRERRKPSSEEGKRSRRSLEGGGCPARAPEPGPTGPASPVGPTSSTGPALLTGPASSPVGPPSGLQASVNLFPTISVAPSADTSSERSIYKARFLENVAAAETEKQVALAQGRAETLAGAMPNEAGGHPDARQLWDSPETAPAARTPQSPAPCVLLRAQRSLAPEPKEPLIPASPKAEPIWELPTRAPRLSIGDLDFSDLGEDEDQDMLNVESVEAGKDIPAPSPPLPLLSGVPPPPPLPPPPPIKGPFPPPPPLPLAAPLPHSVPDSSALPTKRKTVKLFWRELKLAGGHGVSASRFGPCATLWASLDPVSVDTARLEHLFESRAKEVLPSKKAGEGRRTMTTVLDPKRSNAINIGLTTLPPVHVIKAALLNFDEFAVSKDGIEKLLTMMPTEEERQKIEEAQLANPDIPLGPAENFLMTLASIGGLAARLQLWAFKLDYDSMEREIAEPLFDLKVGMEQLVQNATFRCILATLLAVGNFLNGSQSSGFELSYLEKVSEVKDTVRRQSLLHHLCSLVLQTRPESSDLYSEIPALTRCAKVDFEQLTENLGQLERRSRAAEESLRSLAKHELAPALRARLTHFLDQCARRVAMLRIVHRRVCNRFHAFLLYLGYTPQAAREVRIMQFCHTLREFALEYRTCRERVLQQQQKQATYRERNKTRGRMITETEKFSGVAGEAPSNPSVPVAVSSGPGRGDADSHASMKSLLTSRPEDTTHNRRSRGMVQSSSPIMPTVGPSTASPEEPPGSSLPSDTSDEIMDLLVQSVTKSSPRALAARERKRSRGNRKSLRRTLKSGLGDDLVQALGLSKGPGLEV"}},
  "data": [
    {"variants_of": "B1", "conditions": "with rash_human HRAS", "values": [
      {"variant": "P41K", "effect of a mutation on the interaction": "increasing interaction"}
    ]}
  ]
}
